Laboratory results taken from the nanobody polyreactivity screen of Harvey et al. (2022).

Assay: yeast display, Sf9 membrane polyspecificity reagent, FACS + sequencing; frameworks hold sequencing errors
In short: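 Using colony PCR, genes from sorted yeast display clones were amplified, then sequenced on MiSeq at 2 × 250 and filtered by CDR length. The clones had been stained with 10% biotinylated, detergent-solubilized Sf9 membrane reagent for 1 hour at 4 °C and sorted by FACS into low and high (top ~1%) gates on anti-HA and streptavidin fluorescence. Polyreactivity labels come from the gate of origin.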

Which “polyreactivity (PSR sort gate)” value does the source give for “QVQLVESGGGLVQAGGSLRLSCAASGRTFGSYAMGWYRQAPGKERELVAAISYRGSTYYADSVKGRFTISRDNAKNTVYLQMNSLKPEDTAVYYCAARSYGGYGYWGQGTQVTVSS” here?
Its value is “high polyreactivity”.

With “QVQLVESGGGLVQAGGSLRLSCAASGRTFGSYVMGWYRQAPGKERELVATISRRGGTTYYADSVKGRYTISRDNAKNTVYLQMNSLKPEDTAVYYCAAKYFGTRYDYWGQGTQVTVSS” as the sequence, how does the “polyreactivity (PSR sort gate)” value read?
The value was “high polyreactivity”.

With “QVQLVESGGGLVQAGGSLRLSCAASGRTFGTNAMGWYRLAPGKEWELVASISGGTRTNYADSVKGRFTISRDNAKNTVYLQMNSLKPEDTAVYSCAAEVGLPTWYTLPVDDYDYWGQGTQVTVSS” as the sequence, how does the “polyreactivity (PSR sort gate)” value read?
Its value is “low polyreactivity”.

For “QVQLVESGGGLVQAGGSLRLSCAASGRTFGTYDMGWYRQAPGKERELVAGINGSGGSTYYADSVKGRFTISRDNAKNTVYLQMNSLKPEDTAVYYCAADRRFSTYDYWGQGTQVTVSS”, which “polyreactivity (PSR sort gate)” value is on record?
The value was “high polyreactivity”.

Which “polyreactivity (PSR sort gate)” value does the source give for “QVQLVESGGGLVQAGGSLRLSCAASGRTFGVNAMGGYRQAPGKERELVAAISKRGGSTYYADSVKGRFTISRDNAKNTVYLQMNSLKPEDTAVYYCAKDQPHRGPMDYWGQGTQVTVSS” here?
Its value is “high polyreactivity”.

Which “polyreactivity (PSR sort gate)” value does the source give for “QVQLVESGGGLVQAGGSLRLSCAASGRTFGVNAMGWYRQAPGKERELVAVISRSTGSTYYADSVKGRFTISRDNAKNTVYLQMNSLKPEDTAVYYCAAGFWVRGFRRFDYWGQGTQVTVSS” here?
Its value is “high polyreactivity”.

With “QVQLVESGGGLVQAGGSLRLSCAASGRTFGVNAMGWYRQAPRKERELVAAINRGGSTYYADSVKGRFTISRDNAKNTVYLQMISLNPEDTAVYYCAAYVSAVHGISGYWGQGTQVTVSS” as the sequence, how does the “polyreactivity (PSR sort gate)” value read?
Its value is “low polyreactivity”.

Which “polyreactivity (PSR sort gate)” value does the source give for “QVQLVESGGGLVQAGGSLRLSCAASGRTFGVNMGWYRQAPGKERELVAGITSGGSTYYADSVKGRFTISRDNAKNTVYLQMNSLKPEDTAVFYCAKSYRGKWSPYYYWGQGTQVTVSS” here?
Its value is “high polyreactivity”.

For “QVQLVESGGGLVQAGGSLRLSCAASGRTFGVYVMGWSRQAPGKERELVAVITISGGSTYYADSVKGRFTISRDNAKNTVYLQMNSLKPEDTAVYYCAARTYYGYDYWGQGTQVTVSS”, which “polyreactivity (PSR sort gate)” value is on record?
Its value is “high polyreactivity”.

Which “polyreactivity (PSR sort gate)” value does the source give for “QVQLVESGGGLVQAGGSLRLSCAASGRTFGWYAMGWYRQAPGKEREFVAVISRSGTNTYYADSVKGRFTISRDNAKNTVYLQMNSLKPEDTAVYYCAAVRSSQSYYYWGQGTQVTVSS” here?
The value was “high polyreactivity”.

With “QVQLVESGGGLVQAGGSLRLSCAASGRTFGWYTKGWYRQAPGKERELVAAISRSGTSTYYADSVKGRFTISRDNAKNTVYLQMNSLKPEDTAVYYCAAGPWAYGRRHSYYSYGYWGQVTQVTVSS” as the sequence, how does the “polyreactivity (PSR sort gate)” value read?
The value was “high polyreactivity”.

Which “polyreactivity (PSR sort gate)” value does the source give for “QVQLVESGGGLVQAGGSLRLSCAASGRTFGWYTMGWYRQAPGKEREFVAAISSSDTSTYYADSVKGRFTISRDNAKNTVYLQMNSLKPEDTAVYYCAADPPSWRWFVGYSYDYWGQGTQVTVSS” here?
Its value is “low polyreactivity”.

Which “polyreactivity (PSR sort gate)” value does the source give for “QVQLVESGGGLVQAGGSLRLSCAASGRTFGYNAMGRYRQAPGKERELVAAIRYSGGSTYYADSVKGRFTISRDNAKNTVYLQMNSLKPEDTAVYYCAKESRRYYRGYYYWGQGTQVTVSS” here?
The value was “high polyreactivity”.

With “QVQLVESGGGLVQAGGSLRLSCAASGRTFGYNAMGWYIQAPGKERELVAAINWSGASTYYADSVKGRFTISRDNAKNTVYLQMNSLKPEDTAVYYCAADYSYIYGFDYWGQGTQVTVSS” as the sequence, how does the “polyreactivity (PSR sort gate)” value read?
Its value is “low polyreactivity”.

For “QVQLVESGGGLVQAGGSLRLSCAASGRTFGYNAMGWYRQAPGKERELVASISWSGGTTYYADSVKGRFTISRDNAKNTVYLQMNSLKPEDTAVYYCAADRQSYVTRLYRSYWGNYWGQGTQVTVSS”, which “polyreactivity (PSR sort gate)” value is on record?
The value was “high polyreactivity”.

For “QVQLVESGGGLVQAGGSLRLSCAASGRTFGYNAMGWYRQAPGKESEFVAAISWSGGRTYYADSVKGRFTISRDNAKNTVYLQMNSLKPEDTAVYYCAAGFGDGPGNGYYTRYSWDDDYWGQGTQVTVSS”, which “polyreactivity (PSR sort gate)” value is on record?
The value was “low polyreactivity”.

With “QVQLVESGGGLVQAGGSLRLSCAASGRTFGYNTMGWYRQAPGKERELVATIRTNGVSTYYADSVKGRFTISRDNAKNTVYLQMNSLKPEDTAVYYCNAPRTRKQKTIYVNAPGNYWGQGTQVTVSS” as the sequence, how does the “polyreactivity (PSR sort gate)” value read?
The value was “low polyreactivity”.

For “QVQLVESGGGLVQAGGSLRLSCAASGRTFGYNVMGWYRQAPGKERELVAAINRGGGSTYYADSVKGRFTISRDNANNTVYLQMNSLKPEDTAVYYCIKRYRVWFDYWGQGTQVTVSS”, which “polyreactivity (PSR sort gate)” value is on record?
The value was “high polyreactivity”.

For “QVQLVESGGGLVQAGGSLRLSCAASGRTFGYNVMGWYTQAPGKERELVAGISESGGRTYYADSVKGRVTISRDNAKNTVYLQMNSLKPEDTAVYYCAKRYQRASYDYWGQGTQVTVSS”, which “polyreactivity (PSR sort gate)” value is on record?
Its value is “high polyreactivity”.

For “QVQLVESGGGLVQAGGSLRLSCAASGRTFGYYALGWYRQAPGKERELVAAISSNTDSTYYADSVKGRFTISRDNEKNTVYLQMNSLKPEDTAVYYCAAEAYSYYPGTYEDDYWGQGTQVTVSS”, which “polyreactivity (PSR sort gate)” value is on record?
Its value is “low polyreactivity”.

With “QVQLVESGGGLVQAGGSLRLSCAASGRTFGYYAMGWYRPAPGKERELVAAITSSSSTNYADSVKGRFTISRDNAKNTVYLQMNSLKPEDTAVYYCAAYGYYRSGYRALEGYWGQGTQVTVSS” as the sequence, how does the “polyreactivity (PSR sort gate)” value read?
Its value is “high polyreactivity”.

For “QVQLVESGGGLVQAGGSLRLSCAASGRTFGYYAMGWYRQAPGKEREFVAAIWGGTSTYYADSVKGRFTISRDNAKNTVYLQMNSLKPEDTAVYYCAAEGWLYPTGYSTLHYEYDYWGQGTQVTVSS”, which “polyreactivity (PSR sort gate)” value is on record?
The value was “low polyreactivity”.

Which “polyreactivity (PSR sort gate)” value does the source give for “QVQLVESGGGLVQAGGSLRLSCAASGRTFGYYAMGWYRQAPGKERELVAAISWRGGSTYYADSVKGRFTISRDNAKNTVYLQMNSLKPEDTAVYYCNRAYVYPQGPYPYDYWGQGTQVTVSS” here?
Its value is “high polyreactivity”.

For “QVQLVESGGGLVQAGGSLRLSCAASGRTFGYYAMGWYRQAPGKERELVAALSTSGGSTHYADSVKGRFTISRDNAKNTVSLQMNSLKPEDTAVYYCNARLRTGTPYKYVSYNSWGQGTQVTVSS”, which “polyreactivity (PSR sort gate)” value is on record?
The value was “high polyreactivity”.

Which “polyreactivity (PSR sort gate)” value does the source give for “QVQLVESGGGLVQAGGSLRLSCAASGRTFGYYDMGWYRQAPGKGRELVAAITYSGGNTYYADSVKGRFTISRDNAKITVYLQMNSLKPEDTAVYSCAARSSFFPSYSRYDYWGQGTQVTVSS” here?
The value was “high polyreactivity”.

For “QVQLVESGGGLVQAGGSLRLSCAASGRTFGYYTMGWYRQAPGKEREYVAAISGSGTITFYADSVKGRFTISRDNAKNTVYLQMNSLKPEDTAVYYCAADYRYGGSRGYRYDYWGQGTQVTVSS”, which “polyreactivity (PSR sort gate)” value is on record?
The value was “low polyreactivity”.

With “QVQLVESGGGLVQAGGSLRLSCAASGRTFHAYAMGWYRQAPGKGRELVAAITRTGTTHYADSVKGRFTISRDNAKNTVYLQMNSLKPEDTAVYYCAAQHVRVDAQFVLQGYDYWGQGTQVTVSS” as the sequence, how does the “polyreactivity (PSR sort gate)” value read?
The value was “low polyreactivity”.

For “QVQLVESGGGLVQAGGSLRLSCAASGRTFHEYAMGWYRQAPGTERELVADISDGGSTNYADSVKGRFTISRDNAKNTVYLQMNSLKPEDTAVYYCNTDVPSAQYDYWGQGTQVTVSS”, which “polyreactivity (PSR sort gate)” value is on record?
The value was “low polyreactivity”.

Which “polyreactivity (PSR sort gate)” value does the source give for “QVQLVESGGGLVQAGGSLRLSCAASGRTFHGYAMGWYRQAPGKERELVAAINASGGRTYYADSVKGRFTISRDNAKNTVYLQMNSLKPEDTAVYYCAVYSASFRYGLAYDYWGQGTQVTVSS” here?
The value was “high polyreactivity”.

Which “polyreactivity (PSR sort gate)” value does the source give for “QVQLVESGGGLVQAGGSLRLSCAASGRTFHRYAMGWYRQAPGKERELVAAITSSGGSPNYADSVKGRFTISRDNAKNTVYLQMNSLKPEDTAVYYCATDRYRYTSHPWSRGFDYWGQGTQVTVSS” here?
The value was “low polyreactivity”.

With “QVQLVESGGGLVQAGGSLRLSCAASGRTFHRYTMGWYRPAPGKERELVAAISRNGGSTYYADSVKGRFTISRDNAKNTVYLQMNSLKPEDTAVYYCNKPYWSDDYYSWGQGTQVTVSS” as the sequence, how does the “polyreactivity (PSR sort gate)” value read?
The value was “high polyreactivity”.
